In the domain aggregation screens of Martell et al. (2025):

Assay: soluble fraction after stress (log2 fold change); higher = more stays soluble; pooled small domains, quantitative proteomics
Settings: stress: pH 4
In short: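 With high-throughput quantitative proteomics, pooled custom libraries of small protein domains were measured after pH 4 stress. Each domain's soluble amount after the stress gives a fold change taken as aggregation propensity. Higher log2 values mean more of the domain stayed soluble.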

Row | Sequence | soluble fraction (log2)
1 | HMRMNASERQNQIVDLLSQNGVMKIMDIADHFNVSRETIRRDLIILEDDNRIKKWFGGVISAN | -0.219
2 | HMPSNVKIPDVTGKTVAQARSAIEAAGLKVGKEKDEYSDSAKKDSVIRTNPQAGTQRREGSTVDLIVS | 0.22
3 | HMEMDPKELGRQVLAKRKEKGWSQEQLGKMAEISRNYVSQIERGEADSISIKIINRLAIALGVSPSDLGE | 0.21
4 | HMVQDDLRELEGISTELLAKLADAGITNRDDLADLAIDELVAITGQSEDDAKALIMKAREHWFAGDA | -1.09
5 | HMGHLTWTVTGIGHERRARTVAEQMSSVFGVLEARASSAGTVYLEFEREKIDEGGLEASLKRMGVTRVV | -2.05
6 | HMYSSIIGIAFTRAENKPAAPTGGSYSNPHPVDGNWKAAPYDGDGNLWYSIRHFNENVDIQDREWSDPTLG | 0.0834
7 | HMGALAITPDFVGQTREEAERFLRDLDLSFDIGGKGDRILRQEPVAGQRMNLDQPMKLWVGSMNA | -0.313
8 | HMFEYDEIMEQSVPKIAWGSLLTIMKKASSHKEMLWYINETYKNGWSRSMVLNQIAMASYERSLIE | -0.918
9 | HMSAEGPALADWVVRDAHSIGAKITNSVAQLLIDRVGHNQQLLHNELQKLALVQTDISAELVKTMSHY | -0.0595
10 | HMQQQLLHIVFGGELKDVTGIEFEDLSKMDFVGAFSNYKDAYDAWKSAAQRTVDHAEMRYFILHAHKLL | -2.31
11 | HMAKRPRFEDVIKEINTEIQKRKGKWNLTILSWMDFDDVAQVIRIHIYRKWHLYDPSKPLGPWLNR | 0.322
12 | HMTDVIADMLTRIRNAASSKHQTVDIPSSNLKKEIAKILLEEGYIRDFIEIDDKKQGIIRITL | -0.617
13 | HMESSSQLGFELARLVESGNDEEARALVQAKELSEADERKWLYHLGNLLHAAGRPLQASAIWREVGT | -0.436
14 | HMTMEFGEFLAKLRKERGYYQKEVAAYLNVTVATISNYEKNVHAPDLDTLVKLADFYDVSTDYLLQRT | -1.46
15 | HMLAVSVDKDGKVYIQDSETAVDAVTAKLRAISGNNSEIRIFVRGDADVNYGRIMEIMGVINAAGFRKVAL | -0.78
16 | HMPAVTEQTRANLRTAFWSLYREKPTSKITVREITDRAGYNRATFYLYYRDVYDLFEQIEQEIL | -1.36
17 | HMDSTTHALALVRTLPRDQAEAVLLRVVADLDYADVAEIMGRSPGAVRVLVHRGLRRLEQELATRRT | -0.426
18 | HMNPNPFVNLSPRELEVLNLLFKGYGVLEISNELNIGQTTASTFKSRILKKTSTHSVVELIKLAEQYGFIP | -0.847
19 | HMQSVKTQPLRDWLLAHFDKPYPDDEDKVRLAEASGMTRAQVGNWFINARVRTWRPMVLDLGEEIERESV | -0.521
20 | HMSIAEMSGARKSAILLLALDEDSAAEIFKYLSAGEVQEISMEMAKLNQVSHDDMKAVLEAFHKETEEFV | -1.02
21 | HMPQNLQDQLFELILSRYPRRADAVEDLANILHLGKDPVYRRLRGDTFLSPLEISTLALHFRISLDALIV | -1.51
22 | HMINKDNLIEEILKFINTKIADISSNNPLFDIVAKPYISKVVTNNVSKLDKALSLIADDKGMVDADGLLT | -0.295
23 | HMGKSETALELIKRGHRLIADDAVEITRIGSTLSGTAPELIRNYLEVRGVGVIDVEKLFGVGAVQDSTQI | -0.0577
24 | HMEVSVPDFTGMSKSDAQNAAKEAGLTVNFEEDYDNQVPAGQVIRSNPSAGEKVKKNSSVTVTLSKGSN | 0.24
25 | HMEIKDQADAYGKMEPASAAAILSEMTNDLTLVAKILDSMQTSKSALILQNMKPTTAAQVTTKMTAMK | -0.11

Row | Sequence | soluble fraction (log2)
26 | HMPELSPEERAIIETLQKNNDLQVNIIAIKTGMDMGSLSAVLFDLEMKGLVKLLAGGMYHLI | -0.112
27 | HMKYGPSTVAVLTVVRESEMGAFLDAETGRTNDDILLHKTQQTEPVHIGDQVKVFLYLDPKHRLTASMRVP | -1.24
28 | HMYDESVFTGEYHYYYEKLSDDDKLIYRQIYAMMQKRMDGISLNTTDTDNVSRIQQFVLLDNPQF | -2.43
29 | HMTKKFQIQTLDKLNVRKVADWNASAVTTVKKGQILDVVAEVSPKNGSTKMYKLESGLYITASEKYVKKQG | ≥ 0.43
30 | HMREVEAPRDLLAALGERPGALDAWKALSFTHQREYVEAIEDARKPETRERRIANAVKMVAERS | 0.111
31 | HMPTNSDRLIGSDGVVSSKIDNLQGTGKVYISGLTWSARTIDGSEAEEGDIVTVEKIEGATLYVTKR | -0.293
32 | HMSHSDMEEWTDAVRSRRKKLGLTQVQIARRLGVTSHHFSQIESGRTIPSASLQIEIDRLLKNWND | 0.0462
33 | HMQAKQVAIPDVANYSVTDAIKKLQDAGFIVSDEQREEANETVSEGKVSRTSPAAGSIRKEGTEIILYKSL | 0.279
34 | HMLLRVGGLVKDGSVRTDNDLGIKFIIEDNLAEVSVLYNGILPDLFREGQGVIAEGKFIDNIFIANEIVA | -1.13
35 | HMFQRLPFSFANRYKMVLEYQHPERPPVLYYVEPLKAAAILEVSRVIKSGFTPQAIVSDEFEKKLTEAYQR | 0.0565
36 | HMKKSRLHSVLEEIPGIGEKRRKILIKHFGTVEAIKKSSLEELARIKGMNRRAAQNVLEYLK | 0.407
37 | HMASPRVWKDASSGRTLTGEFVELTKDAVKVRRANGDVVSLPLSRLTEEDITFAKGASETGGA | 0.0565
38 | HMETKPTELMLEVHELRIGMFVHLDLGWMDHPFPLNRFKISTNSQIEQIKGLRLKQVKVMTALSDPTALS | -1.25
39 | HMEAKQMDAWIVSEAKRQGGKIEPAAAYELSRHTATDTSIASQEIAKLLMYVDFKRPVTREDVVELVSA | -0.0795
40 | HMIGHIGSAVMLNAKLRPRLPLLHVLALTQSLGERLSAAEAQPEVYRWSDPGQSRVIAEFEGGRLTRWRLE | -0.968
41 | HMQVEYTRGELIQDLEGGKIVYAGISPSRETPTGEVNFILDSGLTRTLYVTDVSEIEQLLISYDIDPEVKK | -1.63
42 | HMEIMELPEYVVRSGSGLDAFREKWDLWDQGLMYDLKDKRAVFPIFIDGVMIDAVGRALAGAEPKWLRYTG | -0.554
43 | HMLNQIGVSQKEFDQIHTAIKIALKTSSLTPTGITEKLPKFPPEKTADILRWMADNKEVLLNSEEKYELKT | 0.0247
44 | HMEIPRYRLIGADGGRMVDLGEGQGAIPPVDVKRGMIDMPGLGKGYYTADGKSAVITNADGSKTRVL | 0.304
45 | HMTTVRLNATVPPELALQRLDRVARELFPEYSRNRLQQWIRSGELLVNGSPSGVRDKVPLGAELAVAANLE | -0.343
46 | HMSNVKVYPNPTSGKLTIDAENYKGVEVYDTSGRLIVKSELRTIDLEEQSKGLYLLKVNANGTTQEFKVFK | -0.977
47 | HMNGLPDLSRYTGVSIVDGLASVGSDSSFAYRAKIAETLGISDYKGSAGQNLEMIRKLGGKV | -0.172
48 | HMSKKLLVLQTSDDAKAKDVLSQNGYQLDDGDKLSIIETEQTKMADVIKLLSDNAIDIEDVQHVH | -0.116
49 | HMEALPELTDRQRQVYEFIEARIAEWGYPPTIREIGQHLGIKSTNGVADHLKALKRKGYLQQ | -0.804
50 | HMTVPDVKGMGARDAVFLLETLGFKVRINGIGQVYEQSIDPGKSYSKGEFISLRL | -0.81

Row | Sequence | soluble fraction (log2)
51 | HMTYAQQIGARIAFLRRLKGLTLAELAERVNKHKSTISKYESGQIIIDIESLKEVADALGVDVAQIVE | 0.187
52 | HMGGAYATVKLSSSSSQLNVRASASTASRVVARLSHGFRVEVLGVSGDWVKIRALGVEGYVARAYLALEGE | -0.17
53 | HMSTKRGEILEFLKDFSARKGYAPSVREIMQAVGLKSTASVHYHLSELHKAGLITVDGTKNRAISLA | 0.0891
54 | HMPKDMAKRASILTAASKLFVQHGYGGVSMDQIAAEAGVSKLTVYSHYGDKDSLFAAAVQAH | 0.163
55 | HMSDGYETLVNMAKPFLNNSKQITENDITDAVNTVSVMLKKRYDMTDEDIRKAVSELLHFYA | -0.791
56 | HMRPDDPYLVIGASREMGDEELKRHYRRLVAETHPDRGIARGLPAEAIAIATRRLAAINAAWDAIERERGL | -0.158
57 | HMTGVPYLVRVKITDLHIRSGPGTNYASKGFIAPGAYTIVEESTGQGAALWGKLKSGKGWIALGYTEK | 0.0451
58 | HMKRVTRQRTEILRVIDESERPLGPQEILQAGREAIPSLSIATIYRTLRDLLAEELIKTVALPGDSPRYES | -0.0601
59 | HMIERLVVSPAAGVFTKKMSVENNTRIDVGHVLGHVGETEVRSPFAGILQNYIAVDGERLTAHQPIAWLRS | 0.15
60 | HMSEYVIVTGEKVNLRVGPGMDYEIAGQVVKGDKLELLASEGDWSKVKTGSGSIYYISSSLVQKA | -0.334
61 | HMWTPLVVAVLIGGTHRFGELRAAVGGITPKVLTETLRSMERDGLVVREQTPGVPPRVDYALTPLGA | -0.191
62 | HMDVSVPDVTGTRLDRAQSLLEAQGLTLGKVEEFFHATEPAGIVYDQEPRPGTRVDEGTAISVSVSKGPEA | 0.0997
63 | HMARRSRADAVRNREALIDAAKAAFTEAGPDVSLEEIARRAGVGIGTLYRHFPTRDAVIEAVYR | -0.206
64 | HMSVLSEQIKEQLMEDIFHKKYKAGDRIVESALARELGVSQASVREALRSLIAMGFLENEPFKGITVR | 0.107
65 | HMAEPEALLAMAQRILGEEVAQSLFQGAAREQGKEGYLPDPTPAFLDALEARLSGSVGAATAHAMISQLVG | -0.473
66 | HMNDTSLIIDNLMLKLGNNIKNFSEIYSLLRKNLAEYGEEFIKSKVDYVLKNFNDNIEENLKKLLTE | -0.601
67 | HMLLTEETLPQLKQIVDEFPYFQIARMLYLKNLAVLNDIRFSVELKKMSIYVPDRRKLFTLIEGE | -0.69
68 | HMTPQNAAAVLRYLSSGAIKGVGPSTAQRIVEKFGAESLDIIQNKPEELATIRGISLSKALAVSEEYNKQY | 0.0689
69 | HMLPDSQLMKEATAWFMRQAADDFSGAERRRLDAWRAQSPAHARAYHQVQALWNAPELQQAAAR | -0.0106
70 | HMLEQISDINILSGYAKEVIAENPKTVSDYLSGKAAAFQALVGQVMKKTGGRGNPVIIQEILKRLIHKK | -0.182
71 | HMSMSTVGERIKKKRKNLNFTQQELAAKLNISAQAVSKWENGVALPDLGLMPKLAQVLESTVDGLLGYQGA | -0.235
72 | HMNPNEVQIPDLVNKTEEEAEQILKDLKLKLVVKSEEYDENIEKGKIISQDPTYKENYKIKEHSEISVIIS | 0.0816
73 | HMPSLSREREAAILEMIERRPSTAEDVASGLGLAVNEVIKLLDGTALRGSVETFQSGEEIYYTRKR | -0.294
74 | HMISDAEWTIMKALWQSEDKKMTLKEIAEAVADSGWSYTTVRTMVGRLVEKEAIEADESHPRNFRYSAA | -1.4
75 | HMFFDKIIVDFLADGSRIDKYISTLYPDISRTHIQRLIAEQFILVNDSVVKSNYKLSTNDVVLIHIPEA | -1.78
